Data taken from PMC12102759.

B1: PEX5 peptide 238-253 (Peroxisomal targeting signal 1 receptor), 16-mer library wild type / PEX14 Pex14 (PEX14 PEX14, residues 16-84) (parent)
chain 1: AQAEQWAAEFIQQQGT
chain 2: TPGSENVLPREPLIATAVKFLQNSRVRQSPLATRRAFLKKKGLTDEEIDMAFQQSGTAADEPSSLGPAT
B2: PAIP1 peptide 126-141 (Polyadenylate-binding protein-interacting protein 1), 16-mer library wild type / PABPC1 PABC (PABPC1 PABC domain, residues 544-623) (parent)
chain 1: SKLSVNAPEFYPSGYS
chain 2: PLTASMLASAPPQEQKQMLGERLFPLIQAMHPTLAGKITGMLLEIDNSELLHMLESPESLRSKVDEAVAVLQAHQAKEAA
B3: TPTE2 peptide 94-109 (Phosphatidylinositol 3,4,5-trisphosphate 3-phosphatase TPTE2), 16-mer library wild type / TLN1 PTB (TLN1 Phosphotyrosine-binding (PTB) domain, residues 309-401) (parent)
chain 1: DLIFTDSKLYIPLEYR
chain 2: GVSFFLVKEKMKGKNKLVPRLLGITKECVMRVDEKTKEVIQEWNLTNIKRWAASPKSFTLDFGDYQDGYYSVQTTEGEQIAQLIAGYIDIILK

Variants of: B1
Assay: proteomic peptide phage display deep mutational scan (ProP-PD DMS): M13 P8 16-mer library selected against immobilised GST-tagged bait for four days (rounds), NGS of the eluted pools per day and pseudo-replica
Details: with PEX14 Pex14 (PEX14 PEX14, residues 16-84); bait immobilised on MaxiSorp plates (10 µg), library pre-cleared on GST, 2 h binding at 4 °C, five washes; one round per day, days 1-4; value from days 2 and 3; keep out of graded; scale: average fractional NGS count over selection days 2 and 3

Screen value, by site and new letter:
chain 1 Q13: R 0.00284, D 0.000183, M 0.000454, A 0.00172, H 0, K 0, S 0, T 0.000335, Y 0.000125, F 0.000134, L 0.00111, G 0.000627
chain 1 A7: N 0, V 0, R 0.00151, F 0.000286, D 0, I 0.000152, H 0.00597, S 0.00111, L 0.00129, Y 0.00359, G 0.00166
chain 1 E4: G 0.00183, Y 0.000168, M 0.000893, I 0.000318, W 0.00183, V 0, K 0.00104, A 0.000155
chain 1 A3: I 0, P 0.000153, L 0, T 0.000152, G 0.000791, N 0.00244, E 0.000385, D 0.000241, Y 0.000443, M 0.000674, S 0.000376, V 0.000366, W 0
chain 1 Q2: E 0, N 7.71e-05, T 0.000198, S 0.000758, P 0.00113, R 7.71e-05, A 0
chain 1 E9: D 0.00183, Q 0.000716, M 0.000215, G 0.000159, K 0.0012, T 0.00204, I 0, A 0.00516, H 0.0023, S 0.000566
chain 1 T16: G 0, W 0.00013, V 0.00206, E 0, M 0.000253, H 0.00132, P 0.000382, Q 0.00068, D 0.000181, S 0.000223, N 0.000881, L 0.000704, A 0.000218
chain 1 G15: V 0.000135, Y 0, I 0, W 0.000703, S 0.000212, D 0.000327, K 0, R 0.000288
chain 1 W6: F 0.000898, L 0
chain 1 Q14: R 0.0013, F 0.000215, E 0, G 0.00214, H 0.000732, S 0.00134, I 0.00105, V 0.000266, W 0.000797, T 0, K 0, D 0.000186
chain 1 Q12: F 0.000147, P 0.000699, L 0.000406, K 0.000341, G 0.000368, A 0, M 0.00226, V 0.000188, T 0.000592, E 0, S 0.00055, R 0, W 0.000355
chain 1 I11: V 0, W 0, D 0.00263, S 0.000456, E 0.00192, G 0.000289, F 0.000739, Q 0.00134, H 0.00108, Y 0.000717, P 0.00284, K 0.000266, T 0.000576
chain 1 Q5: N 9.07e-05, K 0, W 0, H 0.000302, F 0, E 0, A 0.000195, S 0.000207, I 7.71e-05, T 0.00028
chain 1 A8: P 0, V 0.00138, D 0, F 0.00013, L 0.00137, Q 0.00013, S 0.000444, M 0.0014, R 0.000559, W 0.00148, G 0.00272
chain 1 F10: Y 0.000488, W 0.00148, Q 0.000673, I 0.000137, H 0.014, S 0.000175

Variants of: B2
Assay: as above
Details: with PABPC1 PABC (PABPC1 PABC domain, residues 544-623); bait immobilised on MaxiSorp plates (10 µg), library pre-cleared on GST, 2 h binding at 4 °C, five washes; one round per day, days 1-4; value from days 2 and 3; keep out of graded; scale: average fractional NGS count over selection days 2 and 3

Screen value: each site, then its substitutions
chain 1 V5: R 0.000262, G 9.64e-06, K 0.000215, Y 0, L 0.000898, H 0.000797, N 0.000152, M 0.000169, P 0.00187, Q 0.00077, S 0.00056, A 0.00035
chain 1 Y15: A 0.00116, D 0.000552, L 0.000221, F 0.000589, E 7.22e-05, R 0.00115, H 0.000264, T 0.000348, Q 0.000411, K 0.00083, W 0.000396, V 0.000741, M 4.17e-05, I 7.69e-05, N 0.000304, S 0.00124
chain 1 S13: V 0.000104, Q 0, Y 0.00035
chain 1 Y11: S 0.000332, T 0.000142, K 0.000481, F 0.000586, M 0.00123, A 0.000962, Q 0.00111, W 0.000643, L 0.00117, D 0.000603, N 0.000309, H 0.000612, G 0.000528, I 0.000574, E 0.00111, R 0.000552, V 0.00109

Variants of: B3
Assay: as above
Details: with TLN1 PTB (TLN1 Phosphotyrosine-binding (PTB) domain, residues 309-401); bait immobilised on MaxiSorp plates (10 µg), library pre-cleared on GST, 2 h binding at 4 °C, five washes; one round per day, days 1-4; value from days 2 and 3; keep out of graded; scale: average fractional NGS count over selection days 2 and 3

Screen value, by site and new letter:
chain 1 F4: W 0.00189, T 0
chain 1 L13: D 3.05e-05, T 0.000339, Q 0.000253, Y 0, H 2.74e-05, I 0.00223, A 0.0028, V 4.1e-05, N 6.62e-05, G 0.000105, S 0.0004, M 0.00103, K 0.00129, R 0.000367, P 0.000483, E 5.82e-05
chain 1 D1: G 0.00013, W 4.41e-05, K 0, N 7.86e-05, A 9.19e-05, P 0.00123, S 0.000249, I 0, H 0, Q 3.51e-05, F 2.74e-05, E 0.000184, T 0.000148
chain 1 I11: K 3.45e-05, Y 5.14e-05, R 0.000323, Q 7.15e-05, N 7.83e-05, D 2.74e-05, H 0.000432, F 6.22e-05, L 0.00308, E 0.000129, M 3.76e-05, V 0.0012, S 7.21e-05, T 0.000474
chain 1 L9: R 0, I 0.000157, A 0.00044, D 0, T 2.4e-05, G 0.000626, N 0, M 4.46e-05, V 0.000711
chain 1 I3: L 0.00133, N 0.00121, A 2.4e-05, G 0.000109, Q 0.00339, K 0.00351, F 0.0002, H 4.16e-05, V 0.00384, M 0.000353, R 0.00161, Y 0.000244, W 0.000147, T 0.00253, E 0.00388, S 0.000211, D 0.0027
chain 1 P12: W 0, A 0, E 0
chain 1 L2: A 0.000378, V 0.00592, T 0.000185, I 0.000173, F 5.85e-05, Q 0, Y 0.000116, S 3.05e-05, N 2.74e-05, M 0.00204, G 0.000486, W 4.75e-05, P 0.000184, H 0.000178, D 9.22e-05, E 0.000516
chain 1 S7: T 6.44e-05, N 0.000778, A 0, D 0
chain 1 E14: P 0.00048, F 9.64e-05, W 2.8e-05, V 3.45e-05, L 6.19e-05, A 0.00053, G 0.00107, Q 0.000195, T 0.000246, D 0.00114, H 9.43e-05, K 0.000193, S 6.5e-05
chain 1 D6: N 6.84e-05, T 0.000144, Y 3.05e-05, G 0, W 3.79e-05, S 0.000216, M 0, H 3.45e-05, E 0.000625, A 3.11e-05
chain 1 K8: V 0, I 0, M 0.000286, G 0.000416, P 0.0034, A 0.0039, D 0.00103, R 0.00105, H 0.00014, S 0.00137, N 0.000705, Q 0.00121, L 0.000141, E 0.000109, T 9.24e-05, Y 9.03e-05
chain 1 T5: D 0, E 0.000584, F 0.000105, H 5.61e-05
